Measured values taken from US20170296650A1 (Novartis, published 2017).

T1: hCMV UL128 (HEK293T transfectant) (hCMV, UniProt P16837 28-171)
T1 sequence: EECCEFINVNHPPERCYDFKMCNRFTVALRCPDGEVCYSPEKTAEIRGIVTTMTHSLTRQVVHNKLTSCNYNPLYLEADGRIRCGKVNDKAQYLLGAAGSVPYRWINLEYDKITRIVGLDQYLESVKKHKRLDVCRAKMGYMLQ

T2: hCMV gM + gN (HEK293T co-transfectant) (hCMV, UniProt P16733 1-372; P16795 22-138)
T2 sequence 1: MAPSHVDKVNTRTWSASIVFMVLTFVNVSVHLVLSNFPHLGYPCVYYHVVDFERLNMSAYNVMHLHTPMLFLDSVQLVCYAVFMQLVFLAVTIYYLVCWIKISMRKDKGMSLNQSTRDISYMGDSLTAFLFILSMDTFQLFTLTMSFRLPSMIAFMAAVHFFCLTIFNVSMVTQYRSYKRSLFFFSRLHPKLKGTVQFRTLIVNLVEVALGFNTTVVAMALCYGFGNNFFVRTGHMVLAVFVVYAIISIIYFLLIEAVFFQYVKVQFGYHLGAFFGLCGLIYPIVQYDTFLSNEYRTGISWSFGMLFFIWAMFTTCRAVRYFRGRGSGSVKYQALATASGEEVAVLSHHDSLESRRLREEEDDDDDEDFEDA
T2 sequence 2: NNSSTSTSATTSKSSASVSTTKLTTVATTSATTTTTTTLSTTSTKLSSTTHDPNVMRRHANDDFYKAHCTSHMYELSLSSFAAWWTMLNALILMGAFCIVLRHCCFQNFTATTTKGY


Tests used:
[1] = molecular target: T1, hCMV UL128 (HEK293T transfectant); experiment: cell-based or functional assay
[2] = molecular target: T3, hCMV gH + gL + UL128 + UL130 + UL131A (5-member complex; HEK293T co-transfectant) (hCMV, UniProt P12824 24-743; P16832 31-278; P16837 1-171; P16772 1-214); experiment: cell competition; competitor 15D8-biotin
T3 construct: whole, on cells; in the functional rows it stands for the complex on virions or transduced cells of the strain or isolate named in the readout; also called gH/gL/UL128-131A complex; pentameric complex

[3] = molecular target: T3, hCMV gH + gL + UL128 + UL130 + UL131A …; experiment: cell competition; competitor 10F7-biotin
[4] = molecular target: T3, hCMV gH + gL + UL128 + UL130 + UL131A …; experiment: cell competition; competitor 1F11-biotin
[5] = molecular target: T3, hCMV gH + gL + UL128 + UL130 + UL131A …; experiment: cell competition; competitor 2F4-biotin
[6] = molecular target: T3, hCMV gH + gL + UL128 + UL130 + UL131A …; experiment: cell competition; competitor 2C12-biotin
[7] = molecular target: T3, hCMV gH + gL + UL128 + UL130 + UL131A …; experiment: cell competition; competitor 4I22-biotin
[8] = molecular target: T3, hCMV gH + gL + UL128 + UL130 + UL131A …; experiment: cell competition; competitor 6G4-biotin
[9] = molecular target: T1, hCMV UL128 (HEK293T transfectant); experiment: cell-based or functional assay; remark: listed apart in the source
[10] = molecular target: T3, hCMV gH + gL + UL128 + UL130 + UL131A …; experiment: cell competition; competitor 5A2-biotin
[11] = molecular target: T3, hCMV gH + gL + UL128 + UL130 + UL131A …; experiment: cell competition; competitor 4N10-biotin
[12] = molecular target: T3, hCMV gH + gL + UL128 + UL130 + UL131A …; experiment: cell competition; competitor 8I21-biotin
[13] = molecular target: T2, hCMV gM + gN (HEK293T co-transfectant); experiment: cell-based or functional assay
[14] = molecular target: T2, hCMV gM + gN (HEK293T co-transfectant); experiment: cell-based or functional assay; remark: listed apart in the source
[15] = molecular target: T4, hCMV gH + gL + UL128 + UL130 (HEK293T co-transfectant) (hCMV, UniProt P12824 24-743; P16832 31-278; P16837 28-171; P16772 1-214); experiment: cell-based or functional assay
[16] = molecular target: T4, hCMV gH + gL + UL128 + UL130 (HEK293T …); experiment: cell-based or functional assay; remark: listed apart in the source

Row | Binder | Inhibition of binding (%) [2] [%] | Inhibition of binding (%) [4] [%] | Inhibition of binding (%) [5] [%] | Inhibition of binding (%) [6] [%] | Inhibition of binding (%) [7] [%] | Inhibition of binding (%) [8] [%] | Inhibition of binding (%) [10] [%] | Inhibition of binding (%) [11] [%] | Inhibition of binding (%) [12] [%] | other results
1 | 15D8 (antibody, V domains shown, human IgG; also called 15D8-biotin) VH: EVQLVQSGAEVKKPGESLKISCQASGYSFTNYWIAWVRQMPGKGLEWMGIIYPGDSDIKYSPSFRGQVTISADKSISNAFLQWRSLRASDTAMYYCARHAIRGDGFDYWGQGTLVTVSS VL: SYELTQPPSVSVSPGQTATITCSGDKLGEKYACWYQQKPGQSPVLVMYQDTKRPSGIPERFSGSNSGNTATLTISGTRAMDEADYYCQAWDTNTVIFGGGTKLTVL | 100 | 0 | 0 | 0 | 0 | 0 | 0 | 0 | 0 | 90% neutralization VR1814, ARPE [1]: 0.008 µg/mL; 90% neutralization VR1814, MRC-9 [1]: > 10 µg/mL; Inhibition of binding (%) [3]: 0%; 50% neutralization VR1814, ARPE [9]: < 0.001 µg/mL; 50% neutralization VR1814, MRC-9 [9]: > 2 µg/mL
2 | 6L3 (antibody, V domains shown) VH: EVRLEESGGGLVQPGGSLRLSCAASGFTVSTTYMAWVRQAPGKGLEWVSLIHTGGIFGVGGTSYADSVKGRFTISRDTSKNTVSLQMSSLRVEDTAIYFCAREHRGTIDAFDAWGQGTVVIVSS VL: DIHMTQSPSSLSASVGDRVTITCRASQNIRNYLNWYQHKPGKAPKLLIYTTSRLQSGVPSRFSGSGSGTDFTLTVNSLQPEDFASYYCQQSYDGWTFGQGTKVEMK |  |  |  |  |  |  |  |  |  | 90% neutralization VR1814, ARPE [13]: 10 µg/mL; 90% neutralization VR1814, MRC-9 [13]: 30 µg/mL; 50% neutralization VR1814, ARPE [14]: ≤ 2 µg/mL
3 | 8I21 (antibody, V domains shown, human IgG; also called 8I21-biotin) VH: LVELVESGGGVVQPGRSLRLSCAASGFTFSSDGMHWVRQSPGRGLEWVAFISSDGSTPYYADSVKGRFTISRDNSKNTLYLQMNSLRAEDTAMYFCAKDWALFRWLRTFDHWGQGTLVTVSS VL: not shown | 0 | 0 | 0 | 0 | 0 | 0 | 95 | 90 | 100 | 90% neutralization VR1814, ARPE [15]: 0.03 µg/mL; 90% neutralization VR1814, MRC-9 [15]: > 10 µg/mL; 50% neutralization VR1814, ARPE [16]: < 0.01 µg/mL; 50% neutralization VR1814, MRC-9 [16]: > 2 µg/mL
